Experimental findings from patent US20260274993A1 (HUMMINGBIRD BIOSCIENCE PTE, published 2026) are described below.

Positions count from the first letter of the chain named.

The labels stand for the following.
B1: D011-7016.hIgG1 (antibody)
heavy: not shown
light: DIVMTQSPATLSVTPGDSVSLSCRANQSIDNNLHWYQQRSHESPRLLINYASQSISGIPSRFSGSGSGTDFTLSISSVETEDFGMYFCQQSYGWPYTFGGGTKLEIKRTVAAPSVFIFPPSDEQLKSGTASVVCLLNNFYPREAKVQWKVDNALQSGNSQESVTEQDSKDSTYSLSSTLTLSKADYEKHKVYACEVTHQGLSSPVTKSFNRGEC
B2: D011-7016-LD2 H0/L0 IgG2a (antibody, V domains shown)
VH: QVQLQESGPGLVKPSETLSLTCTVSGDAITSGYWNWIRQPPGKGLEYMGYISYSGSAHYNPSLKSRITISRDTSKNQYSLKLSSVTAADTAVYYCASYSFAYWGQGTLVTVSS
VL: EIVMTQSPDFQSVTPKEKVTITCRASQSIDNQLHWYQQKPDQSPKLLINYASQSISGVPSRFSGSGSGTDFTLTISSLEAEDAATYYCQQSYGWPYTFGQGTKLEIKR
B3: D011-7016-LD2 H5/L1 IgG2a (antibody, V domains shown)
VH: B2 VH with E16Q, G26W, I37V, P40H, K43N, G44K
VL: DIVMTQSPPSLSVTPGEPASLSCRASQSIDNQLHWYLQKPGQSPQLLINYASQSISGVTDRFSGSGSGTDFTLKISRVEAEDVGVYFCQQSYGWPYTFGGGTKVEIKR
B4: D011-7016-LD2 H4/L2 IgG2a (antibody, V domains shown)
VH: B2 VH with G26W, I37V, K43N, G44K
VL: B3 VL with P18S, L21I, V85M
B5: D011-7016-LD2 H1/L4 IgG2a (antibody, V domains shown)
VH: B2 VH with E16Q, G26W, I37V, P40H, V92T
VL: B2 VL with M4L, N49K, Y87F, Q100G
B6: D011-7016-LD2 H3/L1 IgG2a (antibody, V domains shown)
VH: B2 VH with T23S, G26W, I37V, K43N, G44K, K81T, S83T, V85M, V92L
VL: B3 VL
B7: D011-7016-LD2 H5/L2 IgG2a (antibody, V domains shown)
VH: B2 VH with E16Q, G26W, I37V, P40H, K43N, G44K
VL: B3 VL with P18S, L21I, V85M
B8: D011-7016-LD2 H5/L4 IgG2a (antibody, V domains shown)
VH: B2 VH with E16Q, G26W, I37V, P40H, K43N, G44K
VL: B2 VL with M4L, N49K, Y87F, Q100G
B9: D011-7016-LD2.IgG2a (antibody, V domains shown)
VH: EVQLVESGPSLVKPSQTLSLICSVTGDAITSGYWNWVRKFPGNKLEYMGYISYSGSAHYNPSLKSRISITRDTSKNQYYLQLNSMTTEDTATYYCASYSFAYWGQGTLVTVSA
VL: DIVMTQSPATLSVTPGDSVSLSCRASQSIDNQLHWYQQRSHESPRLLINYASQSISGIPSRFSGSGSGTDFTLSISSVETEDFGMYFCQQSYGWPYTFGGGTKLEIKR
notes: also called [8]
B10: D011-7016-LD1.IgG2a (antibody, V domains shown)
VH: B9 VH
VL: B9 VL with S26Q

The first assay addresses tabalumab. The assay is described as follows: cell-based or functional assay.
Take B1: the “EC50 of ADCC reporter luminescence (RLU), Jurkat Lucia NFAT-CD16 effector cells with tabalumab-expressing CHO target cells” value stood at 1.02 nM.

For the next assay, the target named is zanolimumab. The assay is described as follows: cell-based or functional assay.
On to B1, for which the “EC50 of ADCC reporter luminescence (RLU), Jurkat Lucia NFAT-CD16 effector cells with zanolimumab-expressing CHO target cells” value was 1.09 nM.

The next assay addresses T1, antibodies containing VH4-34 endogenously expressed by cell line OCI-Ly3. The assay is described as follows: cell-based or functional assay.
Regarding B1, the “EC50 of ADCP (% CFSE of CD14+ cells), M0 macrophages with CFSE-labelled OCI-Ly3 target cells” value was found to be 0.0615 nM.

The target of a further assay is T2, 3A6.
T2 construct: also called 3A6 antibody (containing VH4-34 antigen); 3A6 (VH4-34 antigen)
T2 sequence (VH, as listed by the source, chain 1 of 2): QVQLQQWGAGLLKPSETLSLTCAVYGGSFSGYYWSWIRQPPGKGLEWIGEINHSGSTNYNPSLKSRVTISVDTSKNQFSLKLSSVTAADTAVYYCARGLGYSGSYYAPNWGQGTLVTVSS
T2 sequence (VL, as listed by the source, chain 2 of 2): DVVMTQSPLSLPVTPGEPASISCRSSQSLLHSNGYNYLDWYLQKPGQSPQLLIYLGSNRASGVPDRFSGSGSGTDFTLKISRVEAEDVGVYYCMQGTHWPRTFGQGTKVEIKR
Briefly: ELISA, human IgG1 antigen captured on anti-human IgG Fc. (In general: An ELISA detects its analyte on a solid surface through an enzyme-linked reagent.)
Procedure: (§1) The binding affinity of each humanized antibody for 3A6 antibody (containing VH4-34 antigen), 3A6-FR1 (VH4-34 FR1 mutant) and VSTB112 (negative control protein) was evaluated.
(§2) Plates were coated with 1 ug/ml of anti-human IgG Fc overnight at 4° C. Plates were washed thrice with PBS/0.05% Tween (PBST) before blocking with 5% BSA for 1 h at room temp (RT). Plates were then washed again before addition of 1 μg/ml of 3A6 (VH4-34 antigen), 3A6-FR1 (VH4-34 FR1 mutant) or VSTB112 (negative control protein) human IgG1 proteins. Plates were washed thrice. […] After washing the plates, anti-mouse IgG Fc/HRP diluted 1:5000 in 1% BSA was added and incubated for 1 h at RT. Plates were washed before detection using 1-step ELISA substrate.
Molecule B2 gave an EC50 of 0.0369 nM.
As to B3, the EC50 is 0.0295 nM.
As for B4, the response was half-maximal at 0.0532 nM (EC50).
With B5, the response was half-maximal at 0.0234 nM (EC50).
For the molecule B6, the EC50 was 0.0398 nM.
B7 had an EC50 of 0.0432 nM.
With B8, it took 0.0495 nM to reach a half-maximal effect (EC50).
B9: the EC50 worked out at 0.0254 nM.

For another assay, the target named is T3, 3A6 mutant FR1.
T3 construct: also called 3A6 FR1; 3A6-FR1 (VH4-34 FR1 mutant)
T3 sequence (VH, as listed by the source, chain 1 of 2): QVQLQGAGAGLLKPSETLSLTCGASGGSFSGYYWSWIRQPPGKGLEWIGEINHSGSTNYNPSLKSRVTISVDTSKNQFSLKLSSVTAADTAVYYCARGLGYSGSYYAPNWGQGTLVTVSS
The assay is described as above.
Procedure: as §1, §2
In the case of B2, the binding result was “no binding (tested: 1 µg/ml (highest concentration))”.
Turning to B3, the binding result is recorded as “no binding (tested: 1 µg/ml (highest concentration))”.
As for B4, the binding result was “no binding (tested: 1 µg/ml (highest concentration))”.
With B5, the binding result was “no binding (tested: 1 µg/ml (highest concentration))”.
As for B6, the binding result was “no binding (tested: 1 µg/ml (highest concentration))”.
With B7, the binding result is given as “no binding (tested: 1 µg/ml (highest concentration))”.
With B8, the binding result is “no binding (tested: 1 µg/ml (highest concentration))”.

Another assay has as its target tabalumab. The assay is described as follows: flow cytometry (geomean MFI), CHO cells overexpressing the surface antibody. For orientation: Flow cytometry measures light scatter and fluorescence of single cells or particles in a stream.
Take B2: the EC50 is 0.376 nM.
B3 came in with an EC50 of 0.313 nM.
On to B7, for which the EC50 came out at 0.284 nM.
Regarding B9, the half-maximal effective concentration (EC50) was found to be 0.28 nM.

A further assay has as its target T2, 3A6. The description is as above.
In turn, B2 came in with an EC50 of 0.605 nM.
The same measure, in the same setting: to B3 belongs 0.59 nM.
Turning to B7, it took 0.59 nM to reach a half-maximal effect (EC50).
As for B9, the EC50 is 0.519 nM.

For the next assay, the target named is T4, zanolimumab.
T4 construct: VH4-34-containing antibody used as the antigen, overexpressed on the surface of CHO cells; also called Zano.hIgG1
T4 sequence (VH, as listed by the source, chain 1 of 2): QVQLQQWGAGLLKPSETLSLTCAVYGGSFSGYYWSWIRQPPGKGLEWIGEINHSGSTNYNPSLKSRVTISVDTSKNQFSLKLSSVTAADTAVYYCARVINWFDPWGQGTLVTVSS
T4 sequence (VL, as listed by the source, chain 2 of 2): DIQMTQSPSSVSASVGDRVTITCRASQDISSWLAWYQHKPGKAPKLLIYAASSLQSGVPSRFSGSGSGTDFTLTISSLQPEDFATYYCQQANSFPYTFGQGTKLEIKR
The description is as above.
Molecule B2 displayed an EC50 of 0.453 nM.
The molecule B3 showed a concentration for a half-maximal effect (EC50) of 0.645 nM.
Still for that read-out and setting: to B7 belongs 0.65 nM; to B9, 0.692 nM.

For the next assay, the target named is T3, 3A6 mutant FR1. Briefly: flow cytometry, % parent (FITC), CHO cells expressing 3A6 mutant FR1.
Procedure: (§3) For FACS evaluation, cells were assayed in PBS with 0.5% BSA and 2 mM EDTA. […] Cells were incubated with a secondary anti-mouse FITC antibody for 20 mins at 4° C. FITC readout was measured by FACS.
Regarding B10, the binding result is recorded as “no binding (tested: Log M about -8.1 (about 8e-9 M))”.
As for B9, the binding result was “no binding (tested: Log M about -8.1 (about 8e-9 M))”.

In the next assay the target is T5, Tabalumab mutant FR1.
T5 construct: also called Taba FR1
T5 sequence (VH, as listed by the source, chain 1 of 2): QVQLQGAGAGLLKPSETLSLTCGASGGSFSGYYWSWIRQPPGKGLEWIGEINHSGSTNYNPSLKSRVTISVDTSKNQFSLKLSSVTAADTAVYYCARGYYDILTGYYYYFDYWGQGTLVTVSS
T5 sequence (VL, as listed by the source, chain 2 of 2): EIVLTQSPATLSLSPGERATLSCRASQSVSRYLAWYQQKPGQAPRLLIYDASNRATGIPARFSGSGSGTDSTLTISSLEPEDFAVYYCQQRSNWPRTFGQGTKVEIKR
The assay is described as follows: flow cytometry, % parent (FITC), CHO cells expressing tabalumab mutant FR1.
Procedure: as §3
As for B10, the binding result was “no binding (tested: Log M about -8.1 (about 8e-9 M))”.
Consider B9, for which the binding result is recorded as “no binding (tested: Log M about -8.1 (about 8e-9 M))”.

The target in a further assay is T1, antibodies containing VH4-34 …. Briefly: flow cytometry, EC50 of MFI, OCI-Ly3 cells endogenously expressing VH4-34.
Procedure: (§4) Binding was assessed by FACS. Briefly, cells were assayed in PBS with 0.5% BSA and 2 mM EDTA. Live dead staining was performed with a live dead cell dye for 15 minutes at 4° C. […] Following this, cells were incubated with a secondary PE goat anti-mouse IgG (1:300) for 30 mins at 4° C. and PE readout was measured.
In the case of B2, the EC50 is 0.271 nM.
B3: the half-maximal effective concentration (EC50) was 0.308 nM.
For B4, a half-maximal effect (EC50) was put at 0.33 nM.
For the molecule B5, the EC50 worked out at 0.46 nM.
Molecule B6 displayed an EC50 of 0.292 nM.
In turn, B7 had an EC50 of 0.281 nM.
B8: the EC50 is 0.282 nM.
Molecule B9 had an EC50 of 0.243 nM.

For the next assay, the target named is T6, Zanolimumab mutant FR1.
T6 construct: also called Zano FR1
T6 sequence (VH, as listed by the source, chain 1 of 2): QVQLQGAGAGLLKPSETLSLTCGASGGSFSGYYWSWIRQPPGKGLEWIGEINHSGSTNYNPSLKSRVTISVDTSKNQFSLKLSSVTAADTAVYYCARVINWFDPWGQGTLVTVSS
Briefly: flow cytometry, % parent (FITC), CHO cells expressing zanolimumab mutant FR1.
Procedure: as §3
Take B10: the binding result is listed as “no binding (tested: Log M about -8.1 (about 8e-9 M))”.
Still for that read-out and setting: to B9 belongs “no binding (tested: Log M about -8.1 (about 8e-9 M))”.

The target in a further assay is T2, 3A6. The assay is described as follows: flow cytometry, EC50 of % parent (FITC), CHO cells overexpressing surface 3A6.
Procedure: as §3
For the molecule B10, the EC50 came out at 0.0104 nM.
B9: the EC50 is 0.00909 nM.

Another assay deals with T1, antibodies containing VH4-34 …. Briefly: flow cytometry, EC50 of % parent, OCI-Ly3 cells endogenously expressing VH4-34.
Procedure: as §4
With B2, the concentration for a half-maximal effect (EC50) is 0.00384 nM.
Regarding B3, the half-maximal effective concentration (EC50) was found to be 0.0047 nM.
Turning to B4, the EC50 was 0.00428 nM.
For the molecule B5, the EC50 stood at 0.00765 nM.
For B6, the EC50 stood at 0.00375 nM.
On the same count and under the same terms, with B7 the figure was 0.00438 nM.
For the molecule B8, the EC50 worked out at 0.00251 nM.
As to B9, the EC50 was 0.00477 nM.

In the next assay the target is tabalumab. Briefly: flow cytometry, EC50 of % parent (FITC), CHO cells overexpressing surface tabalumab (Taba).
tabalumab, sequence (VH, as listed by the source, chain 1 of 2): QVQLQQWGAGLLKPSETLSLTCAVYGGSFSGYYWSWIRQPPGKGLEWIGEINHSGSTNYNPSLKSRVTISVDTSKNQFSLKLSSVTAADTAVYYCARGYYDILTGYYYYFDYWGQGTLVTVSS
Procedure: as §3
As to B10, the EC50 came to 0.00863 nM.
Still for that read-out and setting: with B9 the figure was 0.00688 nM.

Another assay deals with T4, zanolimumab. The assay is described as follows: flow cytometry, EC50 of % parent (FITC), CHO cells overexpressing surface zanolimumab (Zano).
Procedure: as §3
On to B10, for which the EC50 is 0.0105 nM.
Same read-out and setting: with B9 the figure was 0.00892 nM.

Broadly, the EC50 is the concentration at which the effect is half-maximal.
